Test results published in patent US20230002480A1.

Key:
Assay in all cases: cell-based or functional assay
[1] = biological target: HIV-1 Env of pseudovirus C2101.c01 (clade CRF01_AE) (HIV-1)
[2] = biological target: HIV-1 Env of pseudovirus BJOX010000.06.2 (clade CRF01_AE (T/F)) (HIV-1)
[3] = biological target: HIV-1 Env of pseudovirus 620345.c01 (clade CRF01_AE) (HIV-1)
[4] = biological target: HIV-1 Env of pseudovirus BJOX009000.02.4 (clade CRF01_AE) (HIV-1)
[5] = biological target: HIV-1 Env of pseudovirus 235-47 (clade CRF02_AG) (HIV-1)
[6] = biological target: HIV-1 Env of pseudovirus X1193_c1 (clade G) (HIV-1)
[7] = biological target: HIV-1 Env of pseudovirus C3347.c11 (clade CRF01_AE) (HIV-1)
[8] = biological target: HIV-1 Env of pseudovirus T278-50 (clade CRF02_AG) (HIV-1)

PG16 (antibody)
IC50, titer in TZM.bl cells [1]: 0.012 µg/mL | IC80, titer in TZM.bl cells [1]: 0.238 µg/mL | IC50, titer in TZM.bl cells [2]: 1.2 µg/mL | IC80, titer in TZM.bl cells [2]: > 50 µg/mL | IC50, titer in TZM.bl cells [3]: > 50 µg/mL | IC80, titer in TZM.bl cells [3]: > 50 µg/mL | IC50, titer in TZM.bl cells [4]: 1.19 µg/mL | IC80, titer in TZM.bl cells [4]: 22.1 µg/mL | IC50, titer in TZM.bl cells [5]: 0.092 µg/mL | IC80, titer in TZM.bl cells [5]: 4.51 µg/mL | IC50, titer in TZM.bl cells [6]: 0.018 µg/mL | IC80, titer in TZM.bl cells [6]: 0.11 µg/mL | IC50, titer in TZM.bl cells [7]: 0.008 µg/mL | IC80, titer in TZM.bl cells [7]: 0.045 µg/mL | IC50, titer in TZM.bl cells [8]: 0.227 µg/mL | IC80, titer in TZM.bl cells [8]: 18.6 µg/mL
